The target of test [1] is T1, 带有His6标签的EGFR胞外区蛋白 (EGFR extracellular domain with His6 tag) (UniProt P00533 25-645, limits assumed).
T1 construct: extracellular domain; also called EGFR保外区蛋白; 抗原; not shown: His6 tag
Nature of the test: monoclonal scFv-phage ELISA on coated antigen at 1 μg/ml, Anti-M13 HRP, OD450. (In general: ELISA stands for enzyme-linked immunosorbent assay.)

The target of test [2] is T1, 带有His6标签的EGFR胞外区蛋白 (EGFR extracellular …). Nature of the test: SPR, BIACORE X100 PLUS; ratio of KD against the reference mR3. In general terms: SPR reads the build-up and loss of mass on a sensor chip optically.

B1: 24H7 scFv (单克隆scFv噬菌体抗体) (scFv)
scFv: QVQLQQPGAELVKPGASVKLSCKASGYTFTNYYIYWFKQRPGQGLEWIGGINPTSGGSNFNEKFKTKATLTVDESSTTAYMQLSSLTSEDSAVYYCTRQGLWFDSDGRGFDFWGQGTTLTVSSGGGGSGGGGSGGGGSDVLMTQIPLSLPVSLGDQASISCRSSQNIVHSNGNTYLDWYLQKPGQSPNLLIYKVSNRFSGVPDRFRGSGSGTDFTLKISRVEAEDLGVYYCFQYSHVPWTFGGGTKLEIKRGQAGQHHHHHH
notes: The phage coat protein fusion is not described
B1: the binding result in test [1] is recorded as “binds”.

B2: 24H7 全长抗体 (full-length anti-EGFR antibody, IgG1/kappa) (antibody, V domains shown)
VH: QVQLQQPGAELVKPGASVKLSCKASGYTFTNYYIYWFKQRPGQGLEWIGGINPTSGGSNFNEKFKTKATLTVDESSTTAYMQLSSLTSEDSAVYYCTRQGLWFDSDGRGFDFWGQGTTLTVSS
VL: DVLMTQIPLSLPVSLGDQASISCRSSQNIVHSNGNTYLDWYLQKPGQSPNLLIYKVSNRFSGVPDRFRGSGSGTDFTLKISRVEAEDLGVYYCFQYSHVPWTFGGGTKLEIKR
notes: also called 全长24H7抗体
For the molecule B2, the “fold improvement of affinity against mR3” value in test [2] is 10 倍.

(Values after patent publication CN111875704A (BAI XIANHONG, dated 2020).)
